Consider 3 molecules from paper PMC8697598 (ACS Omega, 2021).

The target in one series is T1, AfGcHK (Anaeromyxobacter sp. Fw109-5, UniProt A7HD43).
T1 construct: gene gchK; full-length, C-terminal His6 tag kept, pET-21c in E. coli BL21(DE3); reconstituted with heme or cobalt protoporphyrin IX
T1 sequence (A7HD43 1-382): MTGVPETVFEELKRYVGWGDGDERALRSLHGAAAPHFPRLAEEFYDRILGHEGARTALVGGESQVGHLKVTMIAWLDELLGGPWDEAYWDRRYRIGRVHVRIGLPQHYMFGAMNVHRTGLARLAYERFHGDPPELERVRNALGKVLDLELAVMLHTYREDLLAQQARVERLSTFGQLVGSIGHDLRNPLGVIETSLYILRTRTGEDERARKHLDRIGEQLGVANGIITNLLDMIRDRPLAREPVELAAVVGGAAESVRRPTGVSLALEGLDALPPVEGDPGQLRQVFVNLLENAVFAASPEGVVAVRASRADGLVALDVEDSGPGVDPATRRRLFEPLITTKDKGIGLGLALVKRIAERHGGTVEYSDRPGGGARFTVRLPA
In words: autophosphorylation, Phos-tag SDS-PAGE. The series is classed as biochemical. Conditions: Fe(III) and Fe(II)-O2 heme forms of Fe-AfGcHK; 1 mM ATP, 5 mM MgCl2, pH 8.0, 25 °C.

Series [1] deals with the molecule itself. Kind of series: SEC; analytical gel filtration, Superdex 200 Increase 10/300 GL, 50 mM Tris-HCl pH 8.0, 100 mM NaCl; molecular weight estimated from elution volumes of standard proteins.

Turning to `Nc1ncnc2c1ncn2[C@@H]1O[C@H](COP(=O)(O)OP(=O)(O)OP(=O)(O)O)[C@@H](O)[C@H]1O` [ATP], the “autophosphorylation, Phos-tag SDS-PAGE” value at AfGcHK was “the Fe(III), and Fe(II)-O2 complexes of Fe-AfGcHK displayed autophosphorylation activity”.

B1: Fe-AfGcHK, globin-coupled histidine kinase from Anaeromyxobacter sp. Fw109-5 reconstituted with heme (iron protoporphyrin IX) (enzyme, UniProt A7HD43 1-382, looked up)
chain: T1 sequence (A7HD43 1-382)
notes: AfGcHK, globin-coupled oxygen sensor histidine kinase from Anaeromyxobacter sp; Fw109-5; full-length protein with N-terminal globin sensor domain and C-terminal histidine kinase domain; predicted mass 43.0 kDa with the C-terminal His6 tag; Holds one equivalent of heme (iron protoporphyrin IX) per subunit; As purified, partially pre-autophosphorylated (about 10%, at His183); source: E. coli …
With B1, in series [1], the “stoichiometry N” value was 2.

B2: Co-AfGcHK, cobalt-substituted AfGcHK (globin-coupled histidine kinase from Anaeromyxobacter sp. Fw109-5 reconstituted with cobalt protoporphyrin IX) (enzyme, UniProt A7HD43 1-382, looked up)
chain: T1 sequence (A7HD43 1-382)
notes: AfGcHK, globin-coupled oxygen sensor histidine kinase from Anaeromyxobacter sp; Fw109-5; full-length protein with N-terminal globin sensor domain and C-terminal histidine kinase domain; predicted mass 43.0 kDa with the C-terminal His6 tag; Same polypeptide and construct as m1; source: E. coli BL21(DE3), pET-21c; cobalt(III) protoporphyrin IX chloride added to the crude extract; purified (HisTrap …)
Consider B2, for which, in series [1], the “stoichiometry N” value is 2.
